In patent US20190270809A1 (FOURTH MILITARY MEDICAL UNIVERSITY, published 2019):

T1: human BASIGIN recombinant protein (human, UniProt P35613-2 22-205, limits assumed)
T1 construct: also called hBASIGIN
T1 sequence (looked up): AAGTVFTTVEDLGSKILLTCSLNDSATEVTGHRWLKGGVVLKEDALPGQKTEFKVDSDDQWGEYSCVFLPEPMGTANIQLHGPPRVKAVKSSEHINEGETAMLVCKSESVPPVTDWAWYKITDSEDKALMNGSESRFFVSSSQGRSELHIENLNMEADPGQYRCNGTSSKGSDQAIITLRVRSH

B1: humanized antibody HP6H8-3 (antibody, V domains shown)
VH: EVQLVESGGGLVQPGGSLKLSCAASGFTFSNFWMNWVRQAPGKGLEWVAEIRLKSNNYATHYAESVKGRFTISRDDSKNTLYLQMNSLKTEDTAVYYCTSYDYEYWGQGTLVTVSA
VL: DIQMTQSPSSLSASVGDRVTLTCKASENVGTYVSWYQQKPGQAPKLLIYGASNRYTGVPSRFTGSGSGTDFTLTISSLQPDDFATYYCGQSYSYPFTFGSGTKLEIK
notes: Derived from scFv clone 11242; also called WBP229-203; pCI-WBP229-203L/H
B2: humanized antibody HP6H8-1 (antibody, V domains shown)
VH: EVQLVESGGGLVQPGGSLRLSCAASGFTFSNFWMNWVRQAPGKGLEWVSEIRLKSNNYATHYAESVKGRFTISRDDSKNTLYLQMNSLKTEDTAVYYCTSYDYEYWGQGTLVTVSA
VL: DIQMTQSPSTLSASVGDRVTLSCKASENVGTYVSWYQQKPGKAPKLLIYGASNRYTGVPSRFTGSGSGTDFTLTISSLQPEDFATYYCGQSYSYPFTFGSGTKLEIK
notes: Derived from scFv clone 11305; also called WBP229-205; pCI-WBP229-205L/H
B3: humanized antibody HP6H8-2 (antibody, V domains shown)
VH: EVQLVESGGGLVQPGGSLKLSCAASGFTFSNFWMNWVRQAPGKGLEWVAEIRLKSNNYATHYAESVKGRFTISRDDSKNTLYLQMNSLRTEDTAVYYCTSYDYEYWGQGTLVTVSA
VL: DIQMTQSPASLSASVGDRVTISCKASENVGTYVSWYQQKPGQTPKLLIYGASNRYTGVPSRFSGSGSGTDFTLTISSLQPDDFATYYCGQSYSYPFTFGSGTKLEIK
notes: Derived from scFv clone 11245; also called WBP229-204; pCI-WBP229-204L/H
B4: mouse monoclonal antibody HAb18GC2 (6H8) (antibody, V domains shown)
VH: EVKLEESGGGLVQPGGSMKLSCVASGFTFSNFWMNWVRQSPEKGLEWVAEIRLKSNNYATHYAESVKGRFTISRDDSKSSVYLQMNNLRTEDTGIYYCTSYDYEYWGQGTLVTVSA
VL: NIVMTQSPKSMSMSVGERVTLSCKASENVGTYVSWYQQKPEQSPKLLIYGASNRYTGVPDRFTGSGSATDFTLTISSVQAEDLADYHCGQSYSYPFTFGSGTKLEIK
notes: Mouse monoclonal from hybridoma CCTCC-C200636; also called mouse 6H8; Mouse monoclonal 6H8
B5: chimeric antibody c6H8 (antibody, V domains shown)
VH: EVKLEESGGGLVQPGGSMKLSCVASGFTFSNFWMNWVRQSPEKGLEWVAEIRLKSNNYATHYAESVKGRFTISRDDSKSSVYLQMNNLRTEDTGIYYCTSYDYEYWGQGTLVTVSA
VL: NIVMTQSPKSMSMSVGERVTLSCKASENVGTYVSWYQQKPEQSPKLLIYGASNRYTGVPDRFTGSGSATDFTLTISSVQAEDLADYHCGQSYSYPFTFGSGTKLEIK
notes: Mouse 6H8 variable regions fused to a human constant region of IgG1 isotype; also called chimeric 6H8

Target: T1, human BASIGIN recombinant protein
Assay: SPR (ProteOn XPR36), human BASIGIN amine-coupled on chip, antibody as analyte
Method: The affinity of the antibody was measured with ProteOn XPR36 (Bio-Rad). The GLC chip (Bio-Rad, 1765011) was activated with 0.04 M EDC+0.01 M sulfo-NHS (Bio-Rad). The human BASIGIN was diluted to […] with 10 mM NaAc (pH 4.5) and then injected onto the chip at the rate of 30 μl/min to couple the antigen with the activated chip via amino groups. Finally, the chip were inactivated with 1 M ethanolamine-HCl (Bio-Rad), and when the chip was rotated for 90 degrees, it was washed with a buffer (PBS/0.005% Tween 20) until the baseline was stable. Five cell culture supernatants containing scFv antibody and one negative control were injected on six horizontal channels, respectively, at feeding rate of 30 μl/min. The time for binding was set as 60 s and the time for dissociation was set as 900 s. The data were analyzed using the Kinetic-Langmuir model.
The binding affinity of the three humanized antibodies, the mouse antibody 6H8 and the chimeric antibody c6H8 were also determined by SPR (for detailed steps, please refer to the description in example 6), data were shown in Table 2.

B1 and B2 are within 1.5-fold of each other in Kd: 0.102 nM for the first, 0.0905 nM for the second.

Compared with B3, B4 is 20-fold higher in Kd: 0.0583 nM for the first, 1.17 nM for the second. The first binds more tightly here.

B5 gave a Kd of 0.452 nM.

B1 and B2 are within 1.5-fold of each other in koff: 5.44e-05 s⁻¹ for the first, 4.96e-05 s⁻¹ for the second.

First: B3
Second: B4
The koff of the first is 1.8-fold lower: 3.6e-05 s⁻¹ for the first, 6.64e-05 s⁻¹ for the second.

B5 gave a koff of 5.81e-05 s⁻¹.

B1 and B2 are within 1.5-fold of each other in kon: 531000 M⁻¹ s⁻¹ for the first, 548000 M⁻¹ s⁻¹ for the second.

Going from B3 to B4, the kon falls from 618000 M⁻¹ s⁻¹ to 56600 M⁻¹ s⁻¹ (11-fold).

Work on B5 yielded a kon of 128000 M⁻¹ s⁻¹.

Target: T1, human BASIGIN recombinant protein
Assay: ELISA, coated human BASIGIN recombinant protein, HRP-labelled goat anti-human light chain constant region secondary antibody, A450
Method: 200 ng of human BASIGIN recombinant protein was coated in an ELISA plate and allowed to stand overnight at 4° C. The coated plate was blocked with 0.1% BSA at room temperature for 1 hour. Three antibodies obtained in example 8 along with the parental mouse monoclonal 6H8 and chimeric antibody c6H8 were each prepared into 5 solutions with gradient concentrations of 10, 100, 1,000, 10,000 and 100,000 ng/ml. 100 μl of each solution was added into individual wells and the plate was allowed to stand at room temperature for 1 hour. 100 μl of 1:4,000 diluted horseradish peroxidase-labeled goat anti-human light chain constant region as secondary antibody (Millipore) was added and allowed to stand at room temperature for 1 hour. The plates were then washed with 200 μl of 1×PBS buffer for 3 times, TMB substrate solution (50 μl/well) was added to each well to react for 10 min, and the stopping solution (2 M HCl, 50 μl/well) was added to terminate the reaction. The absorbance at 450 nm was read in an ELISA plate reader.

With B4 the “EC50 (read off the curve)” value was about 0.5 µg/mL.
